Consider 3 molecules from patent US20250297005A1 (FORTVITA BIOLOGICS SINGAPORE PTE, published 2025).

The target in test [1] is T1, human CLDN18.2 on cells (HEK293-hCLDN18.2, DAN-G-hCLDN18.2, NUGC-4) (human, UniProt P56856-2 1-261).
T1 sequence (looked up): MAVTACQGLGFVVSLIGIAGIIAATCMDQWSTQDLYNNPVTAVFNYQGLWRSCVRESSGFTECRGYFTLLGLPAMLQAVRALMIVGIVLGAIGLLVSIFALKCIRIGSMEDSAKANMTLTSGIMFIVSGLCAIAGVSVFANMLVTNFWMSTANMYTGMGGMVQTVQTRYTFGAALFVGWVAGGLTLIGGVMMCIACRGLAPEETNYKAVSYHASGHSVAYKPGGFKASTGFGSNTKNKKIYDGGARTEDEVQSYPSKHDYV
Kind of test: cell-based or functional assay.

The target in test [2] is T1, human CLDN18.2 on cells …. Kind of test: flow cytometry of hybridoma supernatant on HEK293-hCLDN18.2 cells. The procedure:
In the present invention, H2L2 fully human antibody transgenic mice (purchased from Harbour BioMed) were immunized with the cells obtained in Example 1 (CHO-hCLDN18.2) by using the hybridoma technology. Spleen cells from the mice were then harvested and electrofused with myeloma cells. […] The test cells (HEK293-hCLDN18.2) obtained in Example 1 were counted, diluted to 1×10⁶ cells/mL, and then added to a U-bottom 96-well plate at 100 µL/well. The cells were centrifuged at 500 g for 5 min, and the cell medium was removed. The hybridoma culture supernatant in a 96-well plate was added to the U-bottom plate at 100 μL/well, the cells were resuspended, and the suspension was left to stand on ice for 30 min. The suspension was centrifuged at 500 g for 5 min, the supernatant was removed, and the cells were washed once with PBS. 100 μL of FITC-labeled anti-mouse Fab secondary antibody (1:500 dilution in PBS) was added to each well, and 100 μL of FITC-labeled anti-human Fab secondary antibody was added to the positive control antibody. The resulting mixture was incubated on ice in the dark for 30 min. The mixture was centrifuged at 500 g for 5 min, the supernatant was removed, and the cells were washed once with PBS. The cells were resuspended in 50 μL of 1×PBS, and the suspension was loaded for FACS assay. […]

B1: bispecific antibody 030 (anti-CLDN18.2 moiety HB37A6 x anti-CD3 moiety HzSP34.24) (bispecific antibody, human IgG1, kappa, lambda, L234A L235A)
heavy 1: not shown
light 1: not shown
heavy 2: not shown
light 2: QAVVTQEPSLTVSPGGTVTLTCRSSTGAVTTSNYANWVQQKPGQAPRGLIGGTNKRAPGVPARFSGSLLGDKAALTLLGAQPEDEAEYYCALWYSNLWVFGQGTKLTVLGQPKAAPSVTLFPPSSEELQANKATLVCLISDFYPGAVTVAWKADSSPVKAGVETTTPSKQSNNKYAASSYLSLTPEQWKSHRSYSCQVTHEGSTVEKTVAPTECS
Consider B1, for which, in test [1], the “EC50 of in vitro T cell (PBMC) killing of gastric cancer cells NUGC-4” value is < 1 pM and the “EC50 of in vitro T cell (PBMC) killing of pancreatic cancer cells DAN-G-hCLDN18.2” value is < 0.1 pM.

B2: bispecific antibody 032 (anti-CLDN18.2 moiety HB37A6 x anti-CD3 moiety HzSP34.87) (bispecific antibody, human IgG1, kappa, lambda, L234A L235A)
heavy 1: not shown
light 1: not shown
heavy 2: not shown
light 2: QAVVTQEPSLTVSPGGTVTLTCRSSTGAVTTSNYANWVQQKPGQAPRGLIGGTNKRAPGVPARFSGSLLGDKAALTLLGAQPEDEAEYYCALWYSNLWVFGQGTKLTVLGQPKAAPSVTLFPPSSEELQANKATLVCLISDFYPGAVTVAWKADSSPVKAGVETTTPSKQSNNKYAASSYLSLTPEQWKSHRSYSCQVTHEGSTVEKTVAPTECS
B2: in test [1], the “EC50 of in vitro T cell (PBMC) killing of gastric cancer cells NUGC-4” value is < 1 pM and the “EC50 of in vitro T cell (PBMC) killing of pancreatic cancer cells DAN-G-hCLDN18.2” value is < 0.1 pM.

B3: fully human antibody clone HB37A6 (hybridoma culture supernatant) (antibody, V domains shown)
VH: EVQLLDSGGGLVQPGGSLRLSCAASGFTFSSYVMSWVRQAPGKGLNWVSTISHSGGSTYYADSVKGRFTISRDNSKNTLYLQMNSLRAEDTAVYYCAIDAPYYDILTGYRYWGQGTLVTVSS
VL: not shown
notes: Tested as hybridoma supernatant from H2L2 transgenic mice; also called anti-CLDN18.2 antibody
Regarding B3, in test [2], the binding result is recorded as “binds”.
